The values that follow come from paper PMC9598480.

Assay [1] deals with recombinant Fasciola hepatica cytosolic Cu/Zn superoxide dismutase (rFhSOD1) (Fasciola hepatica). The assay can be described thus: SEC; Superdex 75 10/300 GL column, 400 uL/min, eluted into 1x PBS; standards conalbumin (76 kDa), carbonic anhydrase (29 kDa), aprotinin (6.5 kDa).
The target of assay [2] is recombinant Fasciola hepatica extracellular Cu/Zn superoxide dismutase (rFhSOD3), signal peptide removed (Fasciola hepatica). The description is as above.

Values joined by “and” are separate entries in the source; they are usually repeats but may differ in a detail not shown here. Equal entries are not always repeated.

As for “recombinant Fasciola hepatica cytosolic Cu/Zn superoxide dismutase (rFhSOD1) (enzyme)”, the stoichiometry N in assay [1] is 2.
“recombinant Fasciola hepatica extracellular Cu/Zn superoxide dismutase (rFhSOD3), signal peptide removed (enzyme)”: in assay [2], the stoichiometry N was 2 and 4.

As a reminder, the stoichiometry N is the number of molecules, sites or subunits per partner or assembly.
